Test results reported in the Human Domainome abundance scans (Beltran et al. 2025).
± gives the uncertainty stated by the source.

Assay: abundance fitness (aPCA) (normalised: wild type 0, dead -1); higher = more abundant; growth selection in yeast, the domain comes from the species named
Conditions: Homo sapiens

Row | Substance | abundance fitness
1 | NEDD4-like E3 ubiquitin-protein ligase WWP2 F472Y, O00308 | -0.025 ± 0.057
2 | NEDD4-like E3 ubiquitin-protein ligase WWP2 P444I, O00308 | -0.2 ± 0.049
3 | NEDD4-like E3 ubiquitin-protein ligase WWP2 F472I, O00308 | -0.495 ± 0.082
4 | NEDD4-like E3 ubiquitin-protein ligase WWP2 D464V, O00308 | -1.03 ± 0.061
5 | NEDD4-like E3 ubiquitin-protein ligase WWP2 N466A, O00308 | -0.242 ± 0.034
6 | NEDD4-like E3 ubiquitin-protein ligase WWP2 P475Q, O00308 | -0.836 ± 0.11
7 | NEDD4-like E3 ubiquitin-protein ligase WWP2 Q442C, O00308 | 0.121 ± 0.079
8 | NEDD4-like E3 ubiquitin-protein ligase WWP2 Y454W, O00308 | -0.056 ± 0.035
9 | NEDD4-like E3 ubiquitin-protein ligase WWP2 K484P, O00308 | -0.05 ± 0.034
10 | NEDD4-like E3 ubiquitin-protein ligase WWP2 T469Y, O00308 | -0.264 ± 0.062
11 | NEDD4-like E3 ubiquitin-protein ligase WWP2 T470R, O00308 | -0.446 ± 0.044
12 | NEDD4-like E3 ubiquitin-protein ligase WWP2 P488Q, O00308 | -0.028 ± 0.033
13 | NEDD4-like E3 ubiquitin-protein ligase WWP2 D464A, O00308 | -0.797 ± 0.036
14 | NEDD4-like E3 ubiquitin-protein ligase WWP2 K453E, O00308 | -0.23 ± 0.058
15 | NEDD4-like E3 ubiquitin-protein ligase WWP2 G449C, O00308 | -0.668 ± 0.076
16 | NEDD4-like E3 ubiquitin-protein ligase WWP2 Y461T, O00308 | -0.445 ± 0.067
17 | NEDD4-like E3 ubiquitin-protein ligase WWP2 Y454D, O00308 | -0.461 ± 0.12
18 | Transcription factor SOX-11 A111E, P35716 | -0.149 ± 0.094
19 | NEDD4-like E3 ubiquitin-protein ligase WWP2 E451M, O00308 | -0.122 ± 0.056
20 | NEDD4-like E3 ubiquitin-protein ligase WWP2 H465M, O00308 | -0.357 ± 0.072
21 | NEDD4-like E3 ubiquitin-protein ligase WWP2 K453W, O00308 | -0.013 ± 0.059
22 | NEDD4-like E3 ubiquitin-protein ligase WWP2 P488A, O00308 | -0.31 ± 0.037
23 | NEDD4-like E3 ubiquitin-protein ligase WWP2 K484C, O00308 | -0.033 ± 0.055

Row | Substance | abundance fitness
24 | NEDD4-like E3 ubiquitin-protein ligase WWP2 G478A, O00308 | 0.035 ± 0.058
25 | Transcription factor SOX-11 R65K, P35716 | -0.364 ± 0.34
26 | NEDD4-like E3 ubiquitin-protein ligase WWP2 F479S, O00308 | -0.013 ± 0.042
27 | NEDD4-like E3 ubiquitin-protein ligase WWP2 G478L, O00308 | 0.012 ± 0.035
28 | NEDD4-like E3 ubiquitin-protein ligase WWP2 E457V, O00308 | -0.188 ± 0.031
29 | NEDD4-like E3 ubiquitin-protein ligase WWP2 G478D, O00308 | -0.036 ± 0.05
30 | Transcription factor SOX-11 E78V, P35716 | -0.615 ± 0.066
31 | NEDD4-like E3 ubiquitin-protein ligase WWP2 T467I, O00308 | -0.421 ± 0.26
32 | NEDD4-like E3 ubiquitin-protein ligase WWP2 E443Q, O00308 | -0.205 ± 0.076
33 | NEDD4-like E3 ubiquitin-protein ligase WWP2 P488K, O00308 | -0.04 ± 0.053
34 | NEDD4-like E3 ubiquitin-protein ligase WWP2 P447A, O00308 | -0.234 ± 0.043
35 | NEDD4-like E3 ubiquitin-protein ligase WWP2 G486L, O00308 | -0.066 ± 0.042
36 | NEDD4-like E3 ubiquitin-protein ligase WWP2 G478S, O00308 | 0.019 ± 0.033
37 | NEDD4-like E3 ubiquitin-protein ligase WWP2 S456C, O00308 | -0.01 ± 0.063
38 | NEDD4-like E3 ubiquitin-protein ligase WWP2 T470Q, O00308 | -0.42 ± 0.056
39 | NEDD4-like E3 ubiquitin-protein ligase WWP2 K453N, O00308 | -0.316 ± 0.063
40 | NEDD4-like E3 ubiquitin-protein ligase WWP2 F479L, O00308 | -0.054 ± 0.049
41 | NEDD4-like E3 ubiquitin-protein ligase WWP2 S487M, O00308 | -0.024 ± 0.057
42 | NEDD4-like E3 ubiquitin-protein ligase WWP2 K453R, O00308 | -0.043 ± 0.045
43 | Transcription factor SOX-11 M68A, P35716 | -0.247 ± 0.066
44 | NEDD4-like E3 ubiquitin-protein ligase WWP2 K484M, O00308 | 0.044 ± 0.058
45 | NEDD4-like E3 ubiquitin-protein ligase WWP2 F479Q, O00308 | -0.082 ± 0.053
46 | NEDD4-like E3 ubiquitin-protein ligase WWP2 Y461K, O00308 | -0.621 ± 0.072

Row | Substance | abundance fitness
47 | NEDD4-like E3 ubiquitin-protein ligase WWP2 E451Y, O00308 | -0.378 ± 0.071
48 | NEDD4-like E3 ubiquitin-protein ligase WWP2 P448A, O00308 | 0.008 ± 0.044
49 | NEDD4-like E3 ubiquitin-protein ligase WWP2 H465Q, O00308 | -0.332 ± 0.042
50 | NEDD4-like E3 ubiquitin-protein ligase WWP2 A445Y, O00308 | -0.002 ± 0.048
51 | NEDD4-like E3 ubiquitin-protein ligase WWP2 R460K, O00308 | -0.088 ± 0.064
52 | NEDD4-like E3 ubiquitin-protein ligase WWP2 G486N, O00308 | -0.177 ± 0.12
53 | NEDD4-like E3 ubiquitin-protein ligase WWP2 Y461G, O00308 | -0.863 ± 0.045
54 | NEDD4-like E3 ubiquitin-protein ligase WWP2 G458Q, O00308 | -0.244 ± 0.064
55 | NEDD4-like E3 ubiquitin-protein ligase WWP2 P477Q, O00308 | -0.394 ± 0.1
56 | Transcription factor SOX-11 K50R, P35716 | -0.396 ± 0.13
57 | NEDD4-like E3 ubiquitin-protein ligase WWP2 G482S, O00308 | -0.025 ± 0.033
58 | NEDD4-like E3 ubiquitin-protein ligase WWP2 Q442L, O00308 | -0.058 ± 0.045
59 | NEDD4-like E3 ubiquitin-protein ligase WWP2 D492I, O00308 | -0.212 ± 0.057
60 | NEDD4-like E3 ubiquitin-protein ligase WWP2 P444R, O00308 | 0.083 ± 0.041
61 | NEDD4-like E3 ubiquitin-protein ligase WWP2 P448F, O00308 | 0.015 ± 0.04
62 | NEDD4-like E3 ubiquitin-protein ligase WWP2 P475L, O00308 | -0.876 ± 0.04
63 | NEDD4-like E3 ubiquitin-protein ligase WWP2 R476K, O00308 | -0.248 ± 0.069
64 | NEDD4-like E3 ubiquitin-protein ligase WWP2 I441V, O00308 | -0.14 ± 0.048
65 | NEDD4-like E3 ubiquitin-protein ligase WWP2 I441S, O00308 | -0.123 ± 0.044
66 | Heterogeneous nuclear ribonucleoprotein U-like protein 2 A30M, Q1KMD3 | 0.067 ± 0.084
67 | NEDD4-like E3 ubiquitin-protein ligase WWP2 M440C, O00308 | -0.491 ± 0.32
68 | NEDD4-like E3 ubiquitin-protein ligase WWP2 R460N, O00308 | -0.343 ± 0.073
69 | NEDD4-like E3 ubiquitin-protein ligase WWP2 F479E, O00308 | 0.027 ± 0.049

Row | Substance | abundance fitness
70 | NEDD4-like E3 ubiquitin-protein ligase WWP2 E457M, O00308 | -0.349 ± 0.071
71 | NEDD4-like E3 ubiquitin-protein ligase WWP2 P448M, O00308 | 0.088 ± 0.068
72 | NEDD4-like E3 ubiquitin-protein ligase WWP2 E480Q, O00308 | -0.053 ± 0.04
73 | NEDD4-like E3 ubiquitin-protein ligase WWP2 A445E, O00308 | 0.025 ± 0.05
74 | NEDD4-like E3 ubiquitin-protein ligase WWP2 D474W, O00308 | -0.253 ± 0.048
75 | NEDD4-like E3 ubiquitin-protein ligase WWP2 E443W, O00308 | -0.185 ± 0.039
76 | NEDD4-like E3 ubiquitin-protein ligase WWP2 P475V, O00308 | -0.631 ± 0.038
77 | NEDD4-like E3 ubiquitin-protein ligase WWP2 F472K, O00308 | -0.355 ± 0.07
78 | NEDD4-like E3 ubiquitin-protein ligase WWP2 E480C, O00308 | -0.611 ± 0.043
79 | NEDD4-like E3 ubiquitin-protein ligase WWP2 T455G, O00308 | -0.379 ± 0.045
80 | NEDD4-like E3 ubiquitin-protein ligase WWP2 D464S, O00308 | -0.565 ± 0.056
81 | NEDD4-like E3 ubiquitin-protein ligase WWP2 P447S, O00308 | -0.332 ± 0.046
82 | NEDD4-like E3 ubiquitin-protein ligase WWP2 H465T, O00308 | -0.292 ± 0.061
83 | NEDD4-like E3 ubiquitin-protein ligase WWP2 T471I, O00308 | -0.701 ± 0.05
84 | NEDD4-like E3 ubiquitin-protein ligase WWP2 A490S, O00308 | -0.013 ± 0.048
85 | NEDD4-like E3 ubiquitin-protein ligase WWP2 T470M, O00308 | -0.398 ± 0.048
86 | NEDD4-like E3 ubiquitin-protein ligase WWP2 P448R, O00308 | -0.033 ± 0.047
87 | NEDD4-like E3 ubiquitin-protein ligase WWP2 K484W, O00308 | -0.101 ± 0.052
88 | NEDD4-like E3 ubiquitin-protein ligase WWP2 T469H, O00308 | -0.26 ± 0.036
89 | NEDD4-like E3 ubiquitin-protein ligase WWP2 T483S, O00308 | 0.004 ± 0.042
